Laboratory results reported in patent US20170073659.

Target: GFP-KRS

B1: caspase-8 (protein)
chain: MDFSRNLYDIGEQLDSEDLASLKFLSLDYIPQRKQEPIKDALMLFQRLQEKRMLEESNLSFLKELLFRINRLDLLITYLNTRKEEMERELQTPGRAQISAYRVMLYQISEEVSRSELRSFKFLLQEEISKCKLDDDMNLLDIFIEMEKRVILGEGKLDILKRVCAQINKSLLKIINDYEEFSKERSSSLEGSPDEFSNGEELCGVMTISDSPREQDSESQTLDKVYQMKSKPRGYCLIINNHNFAKAREKVPKLHSIRDRNGTHLDAGALTTTFEELHFEIKPHDDCTVEQIYEILKIYQLMDHSNMDCFICCILSHGDKGIIYGTDGQEAPIYELTSQFTGLKCPSLAGKPKVFFIQACQGDNYQKGIPVETDSEEQPYLEMDLSSPQTRYIPDEADFLLGMATVNNCVSYRNPAEGTWYIQSLCQSLRERCPRGDDILTILTEVNYEVSNKDDKKNMGKQMPQPTFTLRKKLVFPSD
B1 was tested, and the “amount of KRS cleaved after caspase-8 overexpression (western blot with anti-GFP antibody)” value was “the amount of KRS cleaved was increased with the increasing amount of caspase-8”.
